Experiment [1] concerns the target Mucor circinelloides (Mucor circinelloides). Kind of experiment: flow cytometry on fixed Mucor circinelloides spores; blank 'Hu 2nd Only' median 990.21, mean 1062.19. On the technique in general: In flow cytometry, cells or beads pass a laser one at a time.
For experiment [2], the target named is Rhizopus delemar (Rhizopus delemar). Kind of experiment: flow cytometry on fixed Rhizopus delemar spores; blank 'Hu 2nd Only' median 565.83, mean 592.76.
The target of experiment [3] is Lichtheimia corymbifera (Lichtheimia corymbifera). Kind of experiment: flow cytometry on fixed Lichtheimia corymbifera spores; blank 'Hu 2nd Only' median 461.38, mean 517.80.
Experiment [4] deals with Cunninghamella bertholletiae (Cunninghamella bertholletiae). Kind of experiment: flow cytometry on fixed Cunninghamella bertholletiae spores; blank 'Hu 2nd Only' median 241.78, mean 250.81.
The target of experiment [5] is Rhizomucor (Rhizomucor (species not given)). Kind of experiment: flow cytometry on fixed Rhizomucor spores; blank 'Hu 2nd Only' median 257.20, mean 272.52.

The record followed here is patent US20240209070A1, “COTH3 BINDING AGENTS AND USES THEREOF” (priority 2021, published 2024).

Sequence of Rhizopus delemar (Rhizopus delemar) (I1CFE1 18-579): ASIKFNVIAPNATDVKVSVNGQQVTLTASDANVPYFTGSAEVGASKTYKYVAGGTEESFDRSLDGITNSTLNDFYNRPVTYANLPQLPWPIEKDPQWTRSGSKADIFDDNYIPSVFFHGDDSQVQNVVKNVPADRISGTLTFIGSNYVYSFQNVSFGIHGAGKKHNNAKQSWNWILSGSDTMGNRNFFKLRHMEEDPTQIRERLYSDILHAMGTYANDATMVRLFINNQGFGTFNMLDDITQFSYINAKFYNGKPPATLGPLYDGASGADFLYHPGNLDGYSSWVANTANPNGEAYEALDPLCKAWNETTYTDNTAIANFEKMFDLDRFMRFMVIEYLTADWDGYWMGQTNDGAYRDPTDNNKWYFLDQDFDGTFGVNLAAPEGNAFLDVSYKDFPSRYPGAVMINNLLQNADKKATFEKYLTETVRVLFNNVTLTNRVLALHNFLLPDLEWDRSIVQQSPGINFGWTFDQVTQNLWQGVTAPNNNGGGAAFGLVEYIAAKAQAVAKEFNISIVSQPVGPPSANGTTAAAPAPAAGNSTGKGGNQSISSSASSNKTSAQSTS

For Hu Isotype IgG (antibody), the Mean: FITC-A in experiment [1] amounted to 2020; in experiment [2], 1210; in experiment [3], 2830; in experiment [4], 1070; in experiment [5], 1110. The Median: FITC-A in experiment [1] turned out to be 1820; in experiment [2], 1010; in experiment [3], 1170; in experiment [4], 833; in experiment [5] it was 843.
